One block for each molecule: values may come before it.
How the values were obtained:
[1] = molecular target: bovine LPL homodimer (LPL2) (bovine) (UniProt P11151)
[2] = molecular target: bovine LPL homodimer (LPL2) (bovine) (UniProt P11151); assay: SPR; Biacore T200, CM4 chip; bovine LPL2 captured on immobilised mAb 5D2, GPIHBP1 as analyte (12.5-200 nM), single-cycle kinetic titration; 20°C; 10 mM HEPES (pH 7.4), 150 mM NaCl, 4 mM CaCl2, 0.05% P20, 0.2 mg/ml BSA; 1:1 model
[3] = molecular target: Alexa-647–labeled GPIHBP1^34–131/R38G (human) (UniProt Q8IV16); assay: MST; Monolith NT.115; 5 nM Alexa-647-labeled GPIHBP1, LPL2 titrated 10 pM to 350 nM; 10 mM HEPES (pH 7.4), 150 mM NaCl, 4 mM CaCl2, 0.05% P20, 1.0 mg/ml BSA; 22°C; 1:1 model
[4] = molecular target: T1, bovine LPL homodimer (LPL2) (bovine, UniProt P11151 29-478); assay: SPR; Biacore T200, CM4 chip; bovine LPL2 captured on immobilised mAb 5D2, GPIHBP1 as analyte (12.5-200 nM), single-cycle kinetic titration; 20°C; 10 mM HEPES (pH 7.4), 150 mM NaCl, 4 mM CaCl2, 0.05% P20, 0.2 mg/ml BSA; 1:1 model; conditions: both partners purified
T1 construct: lipoprotein lipase (LPL), bovine, from milk; bovine LPL has two residues more than human LPL (Lys296 human = Lys298 bovine); numbers count on: the mature protein; Fractions with dimeric LPL were used; head-to-tail homodimer; also called lipoprotein lipase; full-length LPL; source: purified from fresh bovine milk (heparin-Sepharose, hydroxyapatite, Superdex HR200 SEC)
T1 sequence (looked up): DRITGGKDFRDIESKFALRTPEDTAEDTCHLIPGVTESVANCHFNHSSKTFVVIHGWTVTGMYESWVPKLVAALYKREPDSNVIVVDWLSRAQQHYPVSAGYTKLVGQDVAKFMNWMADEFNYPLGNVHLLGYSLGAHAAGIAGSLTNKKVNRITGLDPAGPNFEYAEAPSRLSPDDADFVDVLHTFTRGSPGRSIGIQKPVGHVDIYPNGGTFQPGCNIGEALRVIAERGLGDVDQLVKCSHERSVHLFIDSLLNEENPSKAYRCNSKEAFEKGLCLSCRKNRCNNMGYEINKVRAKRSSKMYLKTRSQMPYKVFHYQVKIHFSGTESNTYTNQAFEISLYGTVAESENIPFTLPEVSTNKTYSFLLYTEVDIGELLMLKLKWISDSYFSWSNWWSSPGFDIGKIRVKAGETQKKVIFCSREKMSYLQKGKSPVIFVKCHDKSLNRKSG

CTD^313–448 of human LPL = molecular target: T2, CTD^313–448 of human LPL (human, UniProt P06858 340-475); assay: SPR; Biacore T200, CM4 chip; LPL CTD captured on immobilised mAb 5D2 (~100–200 RU), GPIHBP1 as analyte 8 nM to 4 µM; 20°C; 10 mM HEPES, 150 mM NaCl, 3 mM EDTA (pH 7.4), 0.05% P20; single- and multi-cycle kinetics, global fit to a 1:1 model; conditions: both partners purified
T2 construct: lipoprotein lipase (LPL), human, C-terminal domain, residues 313-448; numbers count on: the mature protein; the printed surface densities (85 RU ~ 5 fmols/mm^2) fit about 17 kDa, that is a CTD without the tag (surmise); also called LPL CTD; C-terminal domain of LPL; source: Drosophila S2 cells, secreted as RS-DIII-ent-CTD, purified (anti-uPAR mAb R24 column)
T2 sequence (looked up): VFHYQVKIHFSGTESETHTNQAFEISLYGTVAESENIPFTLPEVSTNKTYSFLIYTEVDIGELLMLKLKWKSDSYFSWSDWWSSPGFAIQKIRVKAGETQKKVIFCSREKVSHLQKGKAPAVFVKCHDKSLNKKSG

[5] = molecular target: T1, bovine LPL homodimer (LPL2); assay: cell-based or functional assay
[6] = molecular target: T1, bovine LPL homodimer (LPL2); assay: MST; Monolith NT.115; 5 nM Alexa-647-labeled GPIHBP1, LPL2 titrated 10 pM to 350 nM; 10 mM HEPES (pH 7.4), 150 mM NaCl, 4 mM CaCl2, 0.05% P20, 1.0 mg/ml BSA; 22°C; 1:1 model; conditions: both partners purified

Loss of esterase activity (%) of LPL after 45 min at 25°C; relative to LPL without ligand (100%) [1]: 34.7%
Loss of triolein hydrolase activity (%) of LPL after 45 min at 25°C; relative to LPL without ligand (100%) [1]: 51.5%
Unfolding of NTD in LPL (%) after 45 min at 25°C, by pulse-labeling HDX-MS, equimolar ligand; relative to LPL without ligand (100%) [1]: 79.2%
Kd [2]: 91 nM
koff [2]: 0.019 s⁻¹
kon [2]: 190000 M⁻¹ s⁻¹
Molecule: GPIHBP1^34–131/R38G (from UniProt Q8IV16 54-151) (domain or fragment)

Kd [3]: 147 nM
Molecule: bovine LPL homodimer (LPL2) (from UniProt P11151 29-478) (enzyme)

Kd (CTD^313–448 of human LPL): 1410 ± 760 nM
koff (CTD^313–448 of human LPL): 0.1 ± 0.01 s⁻¹
kon (CTD^313–448 of human LPL): 100000 M⁻¹ s⁻¹
B5: GPIHBP1^34–131/R38G (domain or fragment, human, UniProt Q8IV16 54-151, looked up)
chain: LPGGGSRVLLRCYTCKSLPRDERCNLTQNCSHGQTCTTLIAHGNTESGLLTTHSTWCTDSCQPITKTVEGTQVTMTCCQSSLCNVPPWQSSRVQDPTG
notes: numbers count on: the mature protein; Monomeric by SEC; also called truncated GPIHBP1 lacking the acidic domain; isolated LU domain; source: Drosophila S2 cells; not shown: uPAR domain III (DIII), N-terminal, cleaved

Further lines, the molecule ahead of its results:

Molecule: GPIHBP1^1–33 (peptide)
Loss of esterase activity (%) of LPL after 45 min at 25°C, peptide in 5-fold molar excess; relative to LPL without ligand (100%) [1]: 9.8%
Loss of triolein hydrolase activity (%) of LPL after 45 min at 25°C, peptide in 5-fold molar excess; relative to LPL without ligand (100%) [1]: 4.2%
Unfolding of NTD in LPL (%) after 45 min at 25°C, by pulse-labeling HDX-MS, equimolar ligand; relative to LPL without ligand (100%) [1]: 43%

B1: GPIHBP1^1–131/R38G (domain or fragment, human, UniProt Q8IV16 21-151, looked up)
chain: QTQQEEEEEDEDHGPDDYDEEDEDEVEEEETNRLPGGGSRVLLRCYTCKSLPRDERCNLTQNCSHGQTCTTLIAHGNTESGLLTTHSTWCTDSCQPITKTVEGTQVTMTCCQSSLCNVPPWQSSRVQDPTG
notes: numbers count on: the mature protein; Monomeric by SEC; Carries a single N-linked glycan; also called soluble human GPIHBP1; not shown: uPAR domain III (DIII), N-terminal, cleaved
Kd [4]: 25 ± 7 nM
koff [4]: 0.023 ± 0.006 s⁻¹
kon [4]: 990000 M⁻¹ s⁻¹
Kd (CTD^313–448 of human LPL): 120 ± 40 nM
koff (CTD^313–448 of human LPL): 0.12 ± 0.04 s⁻¹
kon (CTD^313–448 of human LPL): 1.04e+06 M⁻¹ s⁻¹
Loss of esterase activity (%) of LPL after 45 min at 25°C; relative to LPL without ligand (100%) [5]: 11.4%
Loss of triolein hydrolase activity (%) of LPL after 45 min at 25°C; relative to LPL without ligand (100%) [5]: 28.7%
Unfolding of NTD in LPL (%) after 45 min at 25°C, by pulse-labeling HDX-MS, equimolar ligand; relative to LPL without ligand (100%) [5]: 32.6%

B2: Alexa-647–labeled GPIHBP1^1–131/R38G (domain or fragment, human, UniProt Q8IV16 21-151, looked up)
chain: QTQQEEEEEDEDHGPDDYDEEDEDEVEEEETNRLPGGGSRVLLRCYTCKSLPRDERCNLTQNCSHGQTCTTLIAHGNTESGLLTTHSTWCTDSCQPITKTVEGTQVTMTCCQSSLCNVPPWQSSRVQDPTG
modifications: Alexa Flour-647 (NHS ester), average 1.3 flurophore/protein; conditions favor modification of the N-terminal α-amino group
notes: numbers count on: the mature protein; m1 with a fluorophore; source: Drosophila S2 cells, purified, labeled with Alexa Flour-647 NHS ester, desalted (PD-10); not shown: uPAR domain III (DIII), N-terminal, cleaved
Kd [6]: 5.7 nM

B3: GPIHBP1^1–131/R38G N-gly (domain or fragment, human, UniProt Q8IV16 21-151, looked up)
chain: QTQQEEEEEDEDHGPDDYDEEDEDEVEEEETNRLPGGGSRVLLRCYTCKSLPRDERCNLTQNCSHGQTCTTLIAHGNTESGLLTTHSTWCTDSCQPITKTVEGTQVTMTCCQSSLCNVPPWQSSRVQDPTG
modifications: the single N-linked glycan removed with N-glycanase
notes: numbers count on: the mature protein; As m1 after removal of the N-glycan; source: Drosophila S2 cells, purified, then incubated overnight at 37°C with N-glycanase under native conditions; not shown: uPAR domain III (DIII), N-terminal, cleaved
Kd (CTD^313–448 of human LPL): 150 nM
koff (CTD^313–448 of human LPL): 0.16 s⁻¹
kon (CTD^313–448 of human LPL): 1.06e+06 M⁻¹ s⁻¹

B4: GPIHBP1^1–131 (domain or fragment, human, UniProt Q8IV16 21-151, looked up)
chain: QTQQEEEEEDEDHGPDDYDEEDEDEVEEEETNRLPGGRSRVLLRCYTCKSLPRDERCNLTQNCSHGQTCTTLIAHGNTESGLLTTHSTWCTDSCQPITKTVEGTQVTMTCCQSSLCNVPPWQSSRVQDPTG
notes: numbers count on: the mature protein; not shown: uPAR domain III (DIII), N-terminal, cleaved
Kd [4]: 38 ± 29 nM
koff [4]: 0.02 ± 0.007 s⁻¹
kon [4]: 650000 M⁻¹ s⁻¹
Kd (CTD^313–448 of human LPL): 290 ± 130 nM
koff (CTD^313–448 of human LPL): 0.22 ± 0.07 s⁻¹
kon (CTD^313–448 of human LPL): 1.12e+06 M⁻¹ s⁻¹
